Measurements from article PMC10098051.

Molecular target: PeSy1‐His recombinant protein (Saccharothrix yanglingensis Hhs.015)
Experiment: MST; PeSy1‐His labelled with protein labelling kit RED, in PBST (PBS with 0.05% Tween 20); serially diluted RSy1‐GST in 16 standard treated capillaries; Monolith NT.115, excitation power 40%, MST power medium; GST as reference control; three biological repeats

Kd: 8.77 µM
Substance: RSy1‐GST recombinant protein (natural protein)
